T1: GRIP1_3, Q9Y3R0
T1 sequence (Q9Y3R0 247-346, limits assumed, looked up): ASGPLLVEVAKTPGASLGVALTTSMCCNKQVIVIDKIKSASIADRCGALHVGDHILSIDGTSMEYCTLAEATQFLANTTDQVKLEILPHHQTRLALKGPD

T2: SYNJ2BP, P57105
T2 sequence (P57105 8-110, limits assumed, looked up): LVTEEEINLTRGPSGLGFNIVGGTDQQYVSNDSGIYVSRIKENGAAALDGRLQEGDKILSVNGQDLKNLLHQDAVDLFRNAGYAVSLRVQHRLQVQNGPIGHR

T3: RHPN1, Q8TCX5
T3 sequence (Q8TCX5 508-602, limits assumed, looked up): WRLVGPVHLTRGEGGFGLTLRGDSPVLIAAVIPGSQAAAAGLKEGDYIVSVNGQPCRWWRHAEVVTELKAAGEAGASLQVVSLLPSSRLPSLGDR

T4: SNTA1, Q13424
T4 sequence (Q13424 82-180, limits assumed, looked up): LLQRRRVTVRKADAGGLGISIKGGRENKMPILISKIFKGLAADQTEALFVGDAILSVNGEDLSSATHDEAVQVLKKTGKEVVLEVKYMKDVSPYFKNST

T5: DLG3_1, Q92796
T5 sequence (Q92796 125-227, limits assumed, looked up): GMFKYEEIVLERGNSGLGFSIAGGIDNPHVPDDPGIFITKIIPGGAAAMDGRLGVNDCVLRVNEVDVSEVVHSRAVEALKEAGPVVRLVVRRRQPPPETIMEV

T6: NHERF3_3, Q5T2W1
T6 sequence (Q5T2W1 238-333, limits assumed, looked up): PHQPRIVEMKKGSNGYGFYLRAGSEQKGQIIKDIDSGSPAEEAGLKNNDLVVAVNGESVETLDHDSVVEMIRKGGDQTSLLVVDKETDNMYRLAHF

T7: PCLO, Q9Y6V0
T7 sequence (Q9Y6V0 4491-4600, limits assumed, looked up): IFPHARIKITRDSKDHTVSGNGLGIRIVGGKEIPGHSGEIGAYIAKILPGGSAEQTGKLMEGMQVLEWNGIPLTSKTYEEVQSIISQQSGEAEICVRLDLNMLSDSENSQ

T8: MPP7, Q5T2T1
T8 sequence (Q5T2T1 134-230, limits assumed, looked up): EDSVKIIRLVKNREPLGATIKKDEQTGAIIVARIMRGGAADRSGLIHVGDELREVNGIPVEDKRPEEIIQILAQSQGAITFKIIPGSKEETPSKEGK

T9: DVL3, Q92997
T9 sequence (Q92997 244-331, limits assumed, looked up): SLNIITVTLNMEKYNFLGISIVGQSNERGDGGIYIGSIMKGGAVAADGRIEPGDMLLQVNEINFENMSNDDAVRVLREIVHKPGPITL

T10: GRIP1_7, Q9Y3R0
T10 sequence (Q9Y3R0 999-1096, limits assumed, looked up): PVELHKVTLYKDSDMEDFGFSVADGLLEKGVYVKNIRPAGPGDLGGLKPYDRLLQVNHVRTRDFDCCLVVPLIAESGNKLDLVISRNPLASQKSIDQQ

T11: TX1BP3, O14907
T11 sequence (O14907 10-122, limits assumed, looked up): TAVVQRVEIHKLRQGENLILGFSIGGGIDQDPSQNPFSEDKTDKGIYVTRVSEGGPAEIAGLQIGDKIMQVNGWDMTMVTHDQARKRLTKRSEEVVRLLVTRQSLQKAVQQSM

T12: NHERF3_4, Q5T2W1
T12 sequence (Q5T2W1 373-468, limits assumed, looked up): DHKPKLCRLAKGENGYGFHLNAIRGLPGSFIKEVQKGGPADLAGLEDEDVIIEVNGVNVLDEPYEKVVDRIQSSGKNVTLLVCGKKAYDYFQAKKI

T13: LRRC7, Q96NW7
T13 sequence (Q96NW7 1440-1537, limits assumed, looked up): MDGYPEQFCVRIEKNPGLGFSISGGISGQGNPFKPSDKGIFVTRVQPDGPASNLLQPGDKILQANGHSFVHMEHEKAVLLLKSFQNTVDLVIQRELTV


Key:
Assay in all cases: holdup assay
Parameters in all cases: key: below the threshold = too weak to quantify, mostly under pKd 3.1 to 4
Details in all cases: plain residues with an end cap or a label only (N-terminal biotin on a linker: ado-ado)
GRIP1_3, Q9Y3R0 = molecular target: T1, GRIP1_3, Q9Y3R0
SYNJ2BP, P57105 = molecular target: T2, SYNJ2BP, P57105
Inadl_5, Q8NI35 = molecular target: Inadl_5, Q8NI35
RHPN1, Q8TCX5 = molecular target: T3, RHPN1, Q8TCX5
MAST1, Q9Y2H9 = molecular target: MAST1, Q9Y2H9
SNTA1, Q13424 = molecular target: T4, SNTA1, Q13424
PDZRN4_1, Q6ZMN7 = molecular target: PDZRN4_1, Q6ZMN7
MAGI2_4, Q86UL8 = molecular target: MAGI2_4, Q86UL8
DLG3_1, Q92796 = molecular target: T5, DLG3_1, Q92796
NHERF3_3, Q5T2W1 = molecular target: T6, NHERF3_3, Q5T2W1
PCLO, Q9Y6V0 = molecular target: T7, PCLO, Q9Y6V0
GRID2IP_2, A4D2P6 = molecular target: GRID2IP_2, A4D2P6
MPP7, Q5T2T1 = molecular target: T8, MPP7, Q5T2T1
DVL3, Q92997 = molecular target: T9, DVL3, Q92997
GRIP1_7, Q9Y3R0 = molecular target: T10, GRIP1_7, Q9Y3R0
TX1BP3, O14907 = molecular target: T11, TX1BP3, O14907
LIMK2, P53671 = molecular target: LIMK2, P53671
GRIP2_7, Q9C0E4 = molecular target: GRIP2_7, Q9C0E4
NHERF3_4, Q5T2W1 = molecular target: T12, NHERF3_4, Q5T2W1
DLG2_3, Q15700 = molecular target: DLG2_3, Q15700
DLG1_3, Q12959 = molecular target: DLG1_3, Q12959
HTRA1, Q92743 = molecular target: HTRA1, Q92743
LRRC7, Q96NW7 = molecular target: T13, LRRC7, Q96NW7

Sequence of LIMK2, P53671 (P53671 143-248): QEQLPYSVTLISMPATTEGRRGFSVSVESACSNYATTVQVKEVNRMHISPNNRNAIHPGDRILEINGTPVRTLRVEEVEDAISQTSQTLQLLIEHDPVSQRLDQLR
Sequence of MAST1, Q9Y2H9 (Q9Y2H9 962-1065): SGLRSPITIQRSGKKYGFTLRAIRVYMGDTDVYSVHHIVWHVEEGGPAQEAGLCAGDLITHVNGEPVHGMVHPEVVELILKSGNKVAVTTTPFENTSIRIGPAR
Sequence of GRIP2_7, Q9C0E4 (Q9C0E4 934-1023): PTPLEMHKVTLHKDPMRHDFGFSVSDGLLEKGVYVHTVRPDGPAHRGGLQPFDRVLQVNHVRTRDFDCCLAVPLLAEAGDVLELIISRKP
Sequence of HTRA1, Q92743 (Q92743 360-477): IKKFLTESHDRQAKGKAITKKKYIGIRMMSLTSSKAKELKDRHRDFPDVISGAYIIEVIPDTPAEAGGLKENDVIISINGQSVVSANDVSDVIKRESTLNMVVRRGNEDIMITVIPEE
Sequence of MAGI2_4, Q86UL8 (Q86UL8 772-865): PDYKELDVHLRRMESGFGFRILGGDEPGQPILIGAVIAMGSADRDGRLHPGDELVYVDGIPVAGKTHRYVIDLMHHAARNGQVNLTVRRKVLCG
Sequence of DLG1_3, Q12959 (Q12959 457-571): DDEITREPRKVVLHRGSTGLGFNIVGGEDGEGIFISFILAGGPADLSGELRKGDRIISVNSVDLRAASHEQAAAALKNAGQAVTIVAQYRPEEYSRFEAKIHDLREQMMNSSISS
Sequence of PDZRN4_1, Q6ZMN7 (Q6ZMN7 213-318): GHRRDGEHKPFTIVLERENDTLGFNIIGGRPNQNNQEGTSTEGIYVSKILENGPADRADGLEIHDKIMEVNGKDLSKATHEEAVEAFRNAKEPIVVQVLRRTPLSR
Sequence of GRID2IP_2, A4D2P6 (A4D2P6 272-370): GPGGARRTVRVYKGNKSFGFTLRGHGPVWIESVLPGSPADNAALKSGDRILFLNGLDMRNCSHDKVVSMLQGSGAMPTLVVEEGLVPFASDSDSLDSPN
Sequence of Inadl_5, Q8NI35 (Q8NI35 673-780): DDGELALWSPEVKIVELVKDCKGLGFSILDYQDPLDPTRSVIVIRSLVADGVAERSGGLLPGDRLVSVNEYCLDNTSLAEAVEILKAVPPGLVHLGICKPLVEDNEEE

Row | Binder | pKd (GRIP1_3, Q9Y3R0) | pKd (SYNJ2BP, P57105) | pKd (Inadl_5, Q8NI35) | pKd (RHPN1, Q8TCX5) | pKd (MAST1, Q9Y2H9) | pKd (SNTA1, Q13424) | pKd (PDZRN4_1, Q6ZMN7) | pKd (MAGI2_4, Q86UL8) | pKd (DLG3_1, Q92796) | pKd (NHERF3_3, Q5T2W1) | pKd (PCLO, Q9Y6V0) | pKd (GRID2IP_2, A4D2P6) | pKd (MPP7, Q5T2T1) | pKd (DVL3, Q92997) | pKd (GRIP1_7, Q9Y3R0) | pKd (TX1BP3, O14907) | pKd (LIMK2, P53671) | pKd (GRIP2_7, Q9C0E4) | pKd (NHERF3_4, Q5T2W1) | pKd (DLG2_3, Q15700) | other results
1 | NNMAFETTHF [SLC5A12, Q1EHB4] | below the threshold | below the threshold | below the threshold | 4.08 | 4.77 | below the threshold | below the threshold | below the threshold | below the threshold | below the threshold | below the threshold | 3.49 | below the threshold | below the threshold | below the threshold | 3.93 | below the threshold | below the threshold | 4.57 | 3.7 | pKd (DLG1_3, Q12959): below the threshold; pKd (HTRA1, Q92743): 3.62; pKd (LRRC7, Q96NW7): below the threshold
2 | SSSVNVSSNL [CXCR1, P25024] | below the threshold | below the threshold | below the threshold | 3.67 | 4.45 | below the threshold | below the threshold | below the threshold | below the threshold | below the threshold | below the threshold | 3.84 | below the threshold | below the threshold | below the threshold | 3.84 | below the threshold | below the threshold | below the threshold | below the threshold | pKd (DLG1_3, Q12959): below the threshold; pKd (HTRA1, Q92743): below the threshold; pKd (LRRC7, Q96NW7): below the threshold
3 | LLQEEWETVM [PTH1R, Q03431] | below the threshold | below the threshold | below the threshold | 4.41 | 5.01 | 4.09 | 4.2 | below the threshold | below the threshold | below the threshold | below the threshold | 4.11 | below the threshold | below the threshold | below the threshold | below the threshold | below the threshold | below the threshold | 4.64 | below the threshold | pKd (DLG1_3, Q12959): below the threshold; pKd (HTRA1, Q92743): 4.68; pKd (LRRC7, Q96NW7): below the threshold
